Assay results reported in patent publication US20100311648A1 (AstraZeneca / MedImmune, published 2010).
Positions of bridges follow the written chain, without caps; N, C: chain ends. Non-standard residues stand in square brackets, D forms with d. dPhe(3,4,5-F3) = N[C@H](Cc1cc(F)c(F)c(F)c1)C(=O)O; dPhe(2-CF3) = N[C@H](Cc1ccccc1C(F)(F)F)C(=O)O; dPhe(3,5-F2) = N[C@H](Cc1cc(F)cc(F)c1)C(=O)O; dPhe(4-CN) = N#Cc1ccc(C[C@@H](N)C(=O)O)cc1; dPhe(3-Cl) = N[C@H](Cc1cccc(Cl)c1)C(=O)O; dPhe(3-Me) = Cc1cccc(C[C@@H](N)C(=O)O)c1; dPhe(2-Cl) = N[C@H](Cc1ccccc1Cl)C(=O)O; dPhe(2-Me) = Cc1ccccc1C[C@@H](N)C(=O)O; dPhe(4-F) = N[C@H](Cc1ccc(F)cc1)C(=O)O; dPhe(2-F) = N[C@H](Cc1ccccc1F)C(=O)O; Orn = NCCC[C@H](N)C(=O)O

B1: Ac-Arg-cyclo(Glu-Arg-D-Phe(3-Cl)-Arg-Trp-Orn)-NH2 (peptide)
peptide: Ac-RER[dPhe(3-Cl)]RW[Orn]-NH2
modifications: lactam 2-7
SMILES: CC(=O)N[C@@H](CCCNC(=N)N)C(=O)N[C@H]1CCC(=O)NCCC[C@@H](C(N)=O)NC(=O)[C@H](Cc2c[nH]c3ccccc23)NC(=O)[C@H](CCCNC(=N)N)NC(=O)[C@@H](Cc2cccc(Cl)c2)NC(=O)[C@H](CCCNC(=N)N)NC1=O
notes: also called No. 99
B2: Ac-Arg-cyclo(Glu-Pro-D-Phe(2-Cl)-Arg-Trp-Orn)-NH2 (peptide)
peptide: Ac-REP[dPhe(2-Cl)]RW[Orn]-NH2
modifications: lactam 2-7
SMILES: CC(=O)N[C@@H](CCCNC(=N)N)C(=O)N[C@H]1CCC(=O)NCCC[C@@H](C(N)=O)NC(=O)[C@H](Cc2c[nH]c3ccccc23)NC(=O)[C@H](CCCNC(=N)N)NC(=O)[C@@H](Cc2ccccc2Cl)NC(=O)[C@@H]2CCCN2C1=O
notes: also called No. 88
B3: Ac-Arg-cyclo(Glu-Thr-D-Phe(2-Cl)-Arg-Trp-Orn)-NH2 (peptide)
peptide: Ac-RET[dPhe(2-Cl)]RW[Orn]-NH2
modifications: lactam 2-7
SMILES: CC(=O)N[C@@H](CCCNC(=N)N)C(=O)N[C@H]1CCC(=O)NCCC[C@@H](C(N)=O)NC(=O)[C@H](Cc2c[nH]c3ccccc23)NC(=O)[C@H](CCCNC(=N)N)NC(=O)[C@@H](Cc2ccccc2Cl)NC(=O)[C@H]([C@@H](C)O)NC1=O
notes: also called No. 32
B4: Ac-Arg-cyclo(Glu-Thr-D-Phe(3-Cl)-Arg-Trp-Orn)-NH2 (peptide)
peptide: Ac-RET[dPhe(3-Cl)]RW[Orn]-NH2
modifications: lactam 2-7
SMILES: CC(=O)N[C@@H](CCCNC(=N)N)C(=O)N[C@H]1CCC(=O)NCCC[C@@H](C(N)=O)NC(=O)[C@H](Cc2c[nH]c3ccccc23)NC(=O)[C@H](CCCNC(=N)N)NC(=O)[C@@H](Cc2cccc(Cl)c2)NC(=O)[C@H]([C@@H](C)O)NC1=O
notes: also called No. 36
B5: Ac-Arg-cyclo(Glu-Lys-D-Phe(3-Cl)-Arg-Trp-Orn)-NH2 (peptide)
peptide: Ac-REK[dPhe(3-Cl)]RW[Orn]-NH2
modifications: lactam 2-7
SMILES: CC(=O)N[C@@H](CCCNC(=N)N)C(=O)N[C@H]1CCC(=O)NCCC[C@@H](C(N)=O)NC(=O)[C@H](Cc2c[nH]c3ccccc23)NC(=O)[C@H](CCCNC(=N)N)NC(=O)[C@@H](Cc2cccc(Cl)c2)NC(=O)[C@H](CCCCN)NC1=O
notes: also called No. 100
B6: Ac-Arg-cyclo(Orn-Pro-D-Phe(2-F)-Arg-Trp-Glu)-NH2 (peptide)
peptide: Ac-R[Orn]P[dPhe(2-F)]RWE-NH2
modifications: lactam 2-7
SMILES: CC(=O)N[C@@H](CCCNC(=N)N)C(=O)N[C@H]1CCCNC(=O)CC[C@@H](C(N)=O)NC(=O)[C@H](Cc2c[nH]c3ccccc23)NC(=O)[C@H](CCCNC(=N)N)NC(=O)[C@@H](Cc2ccccc2F)NC(=O)[C@@H]2CCCN2C1=O
B7: Ac-Arg-cyclo(Glu-Gln-D-Phe(3,4,5-triF)-Arg-Trp-Orn)-NH2 (peptide)
peptide: Ac-REQ[dPhe(3,4,5-F3)]RW[Orn]-NH2
modifications: lactam 2-7
SMILES: CC(=O)N[C@@H](CCCNC(=N)N)C(=O)N[C@H]1CCC(=O)NCCC[C@@H](C(N)=O)NC(=O)[C@H](Cc2c[nH]c3ccccc23)NC(=O)[C@H](CCCNC(=N)N)NC(=O)[C@@H](Cc2cc(F)c(F)c(F)c2)NC(=O)[C@H](CCC(N)=O)NC1=O

target: T1, human melanocortin-4 receptor (human, UniProt P32245 1-332); experiment: [I125]-NDP-α-MSH competition, hMC4-R HEK-293 membranes
T1 construct: whole, on cells; functional assay: HEK293-T-REx-MC4-R cells induced with 0.1 or 10 ng/mL doxycycline; also called hMC4-R; MC4-R
T1 sequence (P32245 whole entry): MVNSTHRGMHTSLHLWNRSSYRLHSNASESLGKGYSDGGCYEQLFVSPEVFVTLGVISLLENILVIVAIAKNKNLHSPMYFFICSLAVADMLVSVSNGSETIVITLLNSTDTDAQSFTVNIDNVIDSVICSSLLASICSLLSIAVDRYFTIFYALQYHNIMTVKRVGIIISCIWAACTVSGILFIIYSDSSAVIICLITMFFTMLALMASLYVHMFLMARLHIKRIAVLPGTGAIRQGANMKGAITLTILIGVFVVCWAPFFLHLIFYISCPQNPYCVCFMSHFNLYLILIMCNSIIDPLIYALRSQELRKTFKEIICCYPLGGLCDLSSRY
Experimental: A competitive inhibition binding assay was performed for exemplified peptides according to the invention using membrane homogenates prepared from HEK-293 cells that express recombinant hMC4-R, hMC3-R, or hMC5-R, and from B-16 mouse melanoma cells (containing endogenous MC1-R). In some instances, HEK-293 cells that express recombinant hMC1-R were employed. Assays were performed in 96 well GF/B Millipore multiscreen filtration plates (MAFB NOB10) pre-coated with 0.5% bovine serum albumin (Fraction V). […] After incubation for 60 minutes at 37° C., the assay mixture was filtered and the membranes washed three times with ice-cold buffer. Filters were dried and counted in a gamma counter for bound radioactivity. […] Each assay was conducted in triplicate and the actual mean values are described, with results less than 0% reported as 0%. Ki values for test peptides of the present invention were determined using Graph-Pad Prism® curve-fitting software.

Binder	Ki [nM]
Ac-REQ[dPhe(2-F)]RW[Orn]-NH2 (lactam 2-7, also called No. 59) [Ac-Arg-cyclo(Glu-Gln-D-Phe(2-F)-Arg-Trp-Orn)-NH2]	7
Ac-R[Orn]N[dPhe(3-Me)]RWE-NH2 (lactam 2-7, also called No. 72) [Ac-Arg-cyclo(Orn-Asn-D-Phe(3-Me)-Arg-Trp-Glu)-NH2]	4
B1	0.5
Ac-REN[dPhe(3,5-F2)]RW[Orn]-NH2 (lactam 2-7, also called No. 76) [Ac-Arg-cyclo(Glu-Asn-D-Phe(3,5-diF)-Arg-Trp-Orn)-NH2]	20
Ac-REN[dPhe(4-CN)]RW[Orn]-OH (lactam 2-7, also called No. 85) [Ac-Arg-cyclo(Glu-Asn-D-Phe(4-CN)-Arg-Trp-Orn)-OH]	64
Ac-RES[dPhe(3-Cl)]RW[Orn]-NH2 (lactam 2-7, also called No. 35) [Ac-Arg-cyclo(Glu-Ser-D-Phe(3-Cl)-Arg-Trp-Orn)-NH2]	10
Ac-REN[dPhe(3,4,5-F3)]RW[Orn]-NH2 (lactam 2-7, also called No. 95) [Ac-Arg-cyclo(Glu-Asn-D-Phe(3,4,5-triF)-Arg-Trp-Orn)-NH2]	3
Ac-REE[dPhe(4-CN)]RW[Orn]-OH (lactam 2-7) [Ac-Arg-cyclo(Glu-Glu-D-Phe(4-CN)-Arg-Trp-Orn)-OH]	1090
Ac-REN[dPhe(2-CF3)]RW[Orn]-NH2 (lactam 2-7, also called No. 116) [Ac-Arg-cyclo(Glu-Asn-D-Phe(2-CF3)-Arg-Trp-Orn)-NH2]	7
Ac-REV[dPhe(4-CN)]RW[Orn]-NH2 (lactam 2-7, also called No. 42) [Ac-Arg-cyclo(Glu-Val-D-Phe(4-CN)-Arg-Trp-Orn)-NH2]	6
B2	5
B3	11
B4	6
B5	4
Ac-REN[dPhe(2-Me)]RW[Orn]-NH2 (lactam 2-7, also called No. 73) [Ac-Arg-cyclo(Glu-Asn-D-Phe(2-Me)-Arg-Trp-Orn)-NH2]	4
Ac-R[Orn]N[dPhe(4-F)]RWE-NH2 (lactam 2-7, also called No. 70) [Ac-Arg-cyclo(Orn-Asn-D-Phe(4-F)-Arg-Trp-Glu)-NH2]	3
B6	7
Ac-R[Orn]Q[dPhe(2-Cl)]RWE-NH2 (lactam 2-7) [Ac-Arg-cyclo(Orn-Gln-D-Phe(2-Cl)-Arg-Trp-Glu)-NH2]	4
Ac-R[Orn]Q[dPhe(4-CN)]RWE-NH2 (lactam 2-7, also called No. 94) [Ac-Arg-cyclo(Orn-Gln-D-Phe(4-CN)-Arg-Trp-Glu)-NH2]	0.9
Ac-REQ[dPhe(4-CN)]RW[Orn]-NH2 (lactam 2-7; also: acetate salt, acetate salt form; also called Ex 46) [Ac-Arg-cyclo(Glu-Gln-D-Phe(4-CN)-Arg-Trp-Orn)-NH2]	4

target: T1, human melanocortin-4 receptor; experiment: cell-based or functional assay

Binder	EC50, cAMP, 10 ng/mL Doxycycline [nM]	Intrinsic Activity, cAMP, 0.1 ng/mL Doxycycline [%]	Intrinsic Activity, cAMP, 10 ng/mL Doxycycline [%]	EC50, cAMP, 0.1 ng/mL Doxycycline [nM]
Ac-R[Orn]N[dPhe(3,4,5-F3)]RWE-NH2 (lactam 2-7) [Ac-Arg-cyclo(Orn-Asn-D-Phe(3,4,5-triF)-Arg-Trp-Glu)-NH2]	0.235	24	100	
B7	0.1	49	100	0.8
Ac-REQ[dPhe(2-F)]RW[Orn]-NH2 (lactam 2-7, also called No. 59) [Ac-Arg-cyclo(Glu-Gln-D-Phe(2-F)-Arg-Trp-Orn)-NH2]	0.1	90	98	0.6
Ac-R[Orn]N[dPhe(3-Me)]RWE-NH2 (lactam 2-7, also called No. 72) [Ac-Arg-cyclo(Orn-Asn-D-Phe(3-Me)-Arg-Trp-Glu)-NH2]	0.35	11		3
B1	0.14	32	94	
Ac-REN[dPhe(3,5-F2)]RW[Orn]-NH2 (lactam 2-7, also called No. 76) [Ac-Arg-cyclo(Glu-Asn-D-Phe(3,5-diF)-Arg-Trp-Orn)-NH2]	0.135	53	85	3
Ac-REN[dPhe(4-CN)]RW[Orn]-OH (lactam 2-7, also called No. 85) [Ac-Arg-cyclo(Glu-Asn-D-Phe(4-CN)-Arg-Trp-Orn)-OH]	0.707	36	94	15
Ac-RES[dPhe(3-Cl)]RW[Orn]-NH2 (lactam 2-7, also called No. 35) [Ac-Arg-cyclo(Glu-Ser-D-Phe(3-Cl)-Arg-Trp-Orn)-NH2]	1	6	84	
Ac-REN[dPhe(3,4,5-F3)]RW[Orn]-NH2 (lactam 2-7, also called No. 95) [Ac-Arg-cyclo(Glu-Asn-D-Phe(3,4,5-triF)-Arg-Trp-Orn)-NH2]	0.125	42	100	1
Ac-REE[dPhe(4-CN)]RW[Orn]-OH (lactam 2-7) [Ac-Arg-cyclo(Glu-Glu-D-Phe(4-CN)-Arg-Trp-Orn)-OH]	269	2	69	
Ac-REN[dPhe(2-CF3)]RW[Orn]-NH2 (lactam 2-7, also called No. 116) [Ac-Arg-cyclo(Glu-Asn-D-Phe(2-CF3)-Arg-Trp-Orn)-NH2]	0.095	77	104	0.68
Ac-REV[dPhe(4-CN)]RW[Orn]-NH2 (lactam 2-7, also called No. 42) [Ac-Arg-cyclo(Glu-Val-D-Phe(4-CN)-Arg-Trp-Orn)-NH2]	0.5	9	84	
B2	0.35	15	89	
B3	0.543	34	96	18
B4	1	8	89	
B5	0.27	27	93	6
Ac-REN[dPhe(2-Me)]RW[Orn]-NH2 (lactam 2-7, also called No. 73) [Ac-Arg-cyclo(Glu-Asn-D-Phe(2-Me)-Arg-Trp-Orn)-NH2]	0.068	86	102	0.587
Ac-R[Orn]N[dPhe(4-F)]RWE-NH2 (lactam 2-7, also called No. 70) [Ac-Arg-cyclo(Orn-Asn-D-Phe(4-F)-Arg-Trp-Glu)-NH2]	0.1	64		0.4
B6	0.15	35	94	3
Ac-R[Orn]Q[dPhe(2-Me)]RWE-NH2 (lactam 2-7) [Ac-Arg-cyclo(Orn-Gln-D-Phe(2-Me)-Arg-Trp-Glu)-NH2]	0.053	81	104	0.575
Ac-R[Orn]Q[dPhe(2-Cl)]RWE-NH2 (lactam 2-7) [Ac-Arg-cyclo(Orn-Gln-D-Phe(2-Cl)-Arg-Trp-Glu)-NH2]	0.07	83	101	0.39
Ac-R[Orn]Q[dPhe(3,4,5-F3)]RWE-NH2 (lactam 2-7) [Ac-Arg-cyclo(Orn-Gln-D-Phe(3,4,5-triF)-Arg-Trp-Glu)-NH2]	0.14	47	100	0.45
Ac-R[Orn]Q[dPhe(4-CN)]RWE-NH2 (lactam 2-7, also called No. 94) [Ac-Arg-cyclo(Orn-Gln-D-Phe(4-CN)-Arg-Trp-Glu)-NH2]	0.09	32	92	0.24
Ac-REQ[dPhe(4-CN)]RW[Orn]-NH2 (lactam 2-7; also: acetate salt, acetate salt form; also called Ex 46) [Ac-Arg-cyclo(Glu-Gln-D-Phe(4-CN)-Arg-Trp-Orn)-NH2]	0.173	40	97	0.666
